Measured values from the nanobody polyreactivity screen of Harvey et al. (2022).

Assay: yeast display, Sf9 membrane polyspecificity reagent, FACS + sequencing; frameworks hold sequencing errors
Procedure, shortened: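 Polyreactivity labels are assigned by the sorting gate from which each nanobody was recovered. The gates were low and high (top ~1%), set on anti-HA fluorescence for expression and streptavidin fluorescence for reagent binding. Before sorting, galactose-induced (36–48 hours) yeast display cells were stained for 1 hour at 4 °C with 10% biotinylated, detergent-solubilized Sf9 membrane reagent.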

| Sequence | polyreactivity (PSR sort gate) |
| --- | --- |
| QVQLQESGGVLEQARGSLRLSCAASGFIFARNYMGWYSQAPGKERELVAGIGVGAITNYADSVKGRFTISRDNAKNTVYLQMNSLETEESAVYYCAVGDTVLGYHYYWGQGTQVTVSN | low polyreactivity |
| QVQHVESGGGLVQAGGSLRLSCAASGSYLRYYAMGWYRQAPGKERELVAAISRSGTNTYYADSVKGRFTFSPDNAKNSVYLQMNSVKPEVTAVYYCAARGYYRDYDSWGQGTQVTVSS | high polyreactivity |
| QVQLVESGVGLVQAGGSLRLSCAASGIIFVTYTMAWYRQAHGKEREFVAAITRRGSRTYYADSVKGRFTISRDNAKNTVYLQMNSPKPEDTAVYYCNAVPRWSYVDEDSWGQGTQVTVSS | high polyreactivity |
| QVHLVESGGGLVQAGGSLGISCAASGRILYGYAMGWNRQAPGKERELVAAITATYYADSVKGRFTISRDNAKNSVYLQMNSLNPEDTGVFYCNAYLCPIQPLSPPDPTFEGGYWGQGTQVTVSS | low polyreactivity |
| QVQLVESGGGLVQAGGSLRLSCAASGFIFPWYSMVWSRQAPGKERELVAAISRGGRTNYADSVKGRFTISRDNAKNTVYLQMNSLIPEDTAVYYCAKKYYLSGSRADDSWGQGTQVTVSS | high polyreactivity |
| QVQLVESGGGLVQAGGSLRLSCAASGRIFYYYAMGWYRQAPGKEREFVADISARGGSTYYADSVKGRFTISRDTAKNTVYLQMNSLKPEDTAVYYCAATTGLYTRYGYWGQGTQVTVSS | high polyreactivity |
| QVQLQESCGGLVQAGGSLCLSCAASGTIFFDGDMGWYRQAPGKEREFVAAINPGGSAYYADSVKGRLPLAAITHTVYLQMNSLKPEDTAVYYCAAKLFDVYGYYYWGQGTHVTVSS | low polyreactivity |
| QVQLVESGGGLVQAGGRLRVSCAASGRTFYYYGMGWYRQAPGKESELVATISWSGGSTYYADSVKGRFTISRDNAKNTVYLQMNSLKPEDTEVYYCAADGQFLYDHIEVDYWGQGTQVTVSS | low polyreactivity |
| QVQLVESVGGLVQAGGSLRLSCAASGFTFHGYAMGWYRQAAGKERELVAAIRSGDRTYYADSVKGRFTISRDNAKNTVYLQMNSLKPEDTAVYYCDAGSYFRDSYARIYRWFYYWGQGTQVTVSS | low polyreactivity |
| QVQLVESGGGLVQAGGCLRLSCAASGSTFRYYAMGWYRQAPGKERELVAAIYGGGTTYYADSVKGRFTISRDNAKNTVYLQLNSLKPEDTAVYYCAASILFSYYGRDDYWGQGTQVTVSS | low polyreactivity |
| QVQLVESGGGLVQAGGSLRLSCAASGSIFGYYALGWYRQAPGKERELVAAITSVGSTYYADSVKGRFTISRDNAKKTVSLQMNSLKPEDTAVYYCATRFWFRSLRSSYYYWGQGTQVTVSS | high polyreactivity |
| QVQPVESGGGLVQAGGSLRLSCAASGRIFGDYAMGWYRQAPGKERELVAAINCSGTSTNYADSVKGRFTISRDNAKYTVYLEMNSLKPEFTAVYYCNAEGTYRPEYDSWVQGTQVTVSS | low polyreactivity |
| QVQLVESGGGLVQAGGTLRLSCAACGSTYYRNAMGWYRPAPGKERELVATITRSGGSTYYADSVKGRFTISRDNAKNTVYLQMNSLKPEDTAVYYCAARGWYKSDYWGQGTQVTVSS | low polyreactivity |
| QVQLVESGGGLVQAGGSLRLSCAASGSIFRQNAMGWYRQAPGKERELVAAISWSGVRTYYADSVKGRFTISRDNAKNTVYLQMNSLKPEDTAVYYCATRYTHVYYGRISSSPKFDSWGQGTQVTVSS | low polyreactivity |
| QVQLVESGGGLVQAGGSLRLSCAASGLIFEYYAMGWYRQAPGKERELVAVINWSGASTYYADSVKGRFTITRDYAKNTVYLQMNSLKPEDTAVYYCAAGVLITGLRFDYWGQGTQVTVSS | low polyreactivity |
| QVQLVESGGGLVQAGGSLRLSCAASGSTFFRNAMGWYRQAPGKERELVAAISKSGTSTYYADSVKGRFTISRDNAKNNVYLQMNSLKPEDTAVYYCAKYGFCYPQSYAYYYWGQGTQVTVSS | high polyreactivity |
| QVQLVESGGGLVQAGGSLRLSCAASGSTFLRYAMGWYRPAPGKERELVAAISWSGGTTYYADSVKGRFTISRDNAKNTVYLQMNSLKPEDTAVYYCNTASWRAQYYYWGQGTQVTVSS | high polyreactivity |
| QVQLVESGGGLVQAGGSLRLSCAASGIIFYDYAMGWYRQAPGKERELVAAISGSGGSTYYADSVKGRFTISRDNAKNTVYLQMNSLKPEDTAVYYCAARFTRQMYYWGQGTQVTVSS | high polyreactivity |
| QVQLVESGGGLVQAVGSLRLSCAPSGTTFTHYAMGWYRKAPGKERELVAAISWSGGSTYYADSVKGRFTISRDNAKNTVYLQMNSLKQEDCAVYYCKTYGVSYYGSGYYWGQGTQVTVSS | high polyreactivity |
| QVQLVESGGGLVQAGGSLRLSCAASGRIFYLYTMGWYRQAPGKERELVAAITRAGRTYYADSVKGRFTISRDNAKNTVYLQMNSLKPEDTAVYYCAAAFLSRVQGYDSWGQGTQVTVSS | high polyreactivity |
| QVQLVESGGGLVQAGGSLLLSCAASGGTIRYYAMGWSRQSPGKERELVAAISRGGTNTYYADSVKGRFTISRDNAKNTVYLQRNSLKPDDTAVYYCSAKRYSRYNYWGQGTQVTVSS | high polyreactivity |
| QVQLVESGGGLVQAGGSLRLSCAASGFTFRRNVMGWYRQAPGKERELVAAIRGSDGSTYYADSVKGRFTISRDNAKNTVYLQMNSLKPEDTAVYYCNVVGKGLYRKMGYWGQGTQVTVSS | high polyreactivity |
